Experimental data published in patent US20080194611A1, “Modulation of Cell Barrier Dysfunction” (priority 2005, published 2008).

Target: membrane protein on P. aeruginosa (whole cells, membrane fractions, solubilized membrane proteins of (Pseudomonas aeruginosa))

Chain of recombinant human IFN-γ (rH IFN-γ) (P01579 24-166 limits assumed): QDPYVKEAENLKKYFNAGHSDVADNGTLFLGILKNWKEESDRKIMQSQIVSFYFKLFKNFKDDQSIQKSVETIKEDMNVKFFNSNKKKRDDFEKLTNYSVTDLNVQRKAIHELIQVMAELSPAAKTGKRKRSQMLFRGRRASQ

With “recombinant human IFN-γ (rH IFN-γ) (from UniProt P01579 24-166) (ligand)” as the substance, how does the percent of bacterial cells that bound IFN-γ read?
The percent of bacterial cells that bound IFN-γ was 73%.
